# Results published in patent US20260062456A1 (ALPINE IMMUNE SCIENCES, published 2026).
# Biological target: human PD-1 stably expressed on Jurkat/IL-2 reporter cells (Jurkat/PD-1 cells) (human, UniProt Q15116 25-288)
# Assay: flow cytometry, Jurkat/PD-1 cells
# Chain of human PD-1 stably expressed on Jurkat/IL-2 reporter cells (Jurkat/PD-1 cells) (Q15116 25-288): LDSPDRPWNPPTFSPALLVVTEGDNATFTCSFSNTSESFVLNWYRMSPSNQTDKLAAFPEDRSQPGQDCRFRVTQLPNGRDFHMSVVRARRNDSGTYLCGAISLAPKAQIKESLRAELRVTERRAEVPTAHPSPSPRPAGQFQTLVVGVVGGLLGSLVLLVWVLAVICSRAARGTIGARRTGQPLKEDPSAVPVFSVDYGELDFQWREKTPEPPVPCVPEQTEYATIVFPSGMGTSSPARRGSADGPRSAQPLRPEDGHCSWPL
Binder,Fold Increase over WT PD-L1 ECD-Fc,MFI at 20 nM conc.
"variant PD-L1 ECD-Fc E27D, N45D, T183A, I188V (Fc fusion, not shown: a dimerising Fc or GST) FTVTVPKDLYVVEYGSNMTIECKFPVDKQLDLAALIVYWEMEDKDIIQFVHGEEDLKVQHSSYRQRARLLKDQLSLGNAALQITDVKLQDAGVYRCMISYGGADYKRITVKVNAPYNKINQRILVVDPVTSEHELTCQAEGYPKAEVIWTSSDHQVLSGKTTTTNSKREEKLFNVTSTLRINATTNEVFYCTFRRLDPEENHTAELVIPELPLAHPPNER",26.6 fold,133000 MFI
"variant PD-L1 ECD-Fc M41K, D43G, K44E, N45D, R195G, N201D (Fc fusion, not shown: a dimerising Fc or GST) FTVTVPKDLYVVEYGSNMTIECKFPVEKQLDLAALIVYWEKEGEDIIQFVHGEEDLKVQHSSYRQRARLLKDQLSLGNAALQITDVKLQDAGVYRCMISYGGADYKRITVKVNAPYNKINQRILVVDPVTSEHELTCQAEGYPKAEVIWTSSDHQVLSGKTTTTNSKREEKLFNVTSTLRINTTTNEIFYCTFRGLDPEEDHTAELVIPELPLAHPPNER",28.9 fold,145000 MFI
"variant PD-L1 ECD-Fc M41K, D43G, N45D, R64S, R195G (Fc fusion, not shown: a dimerising Fc or GST) FTVTVPKDLYVVEYGSNMTIECKFPVEKQLDLAALIVYWEKEGKDIIQFVHGEEDLKVQHSSYSQRARLLKDQLSLGNAALQITDVKLQDAGVYRCMISYGGADYKRITVKVNAPYNKINQRILVVDPVTSEHELTCQAEGYPKAEVIWTSSDHQVLSGKTTTTNSKREEKLFNVTSTLRINTTTNEIFYCTFRGLDPEENHTAELVIPELPLAHPPNER",27.4 fold,137000 MFI
"variant PD-L1 ECD-Fc K28R, N45D, V129D, T163N, R195T (Fc fusion, not shown: a dimerising Fc or GST) FTVTVPKDLYVVEYGSNMTIECKFPVERQLDLAALIVYWEMEDKDIIQFVHGEEDLKVQHSSYRQRARLLKDQLSLGNAALQITDVKLQDAGVYRCMISYGGADYKRITVKVNAPYNKINQRILVVDPDTSEHELTCQAEGYPKAEVIWTSSDHQVLSGKTTNTNSKREEKLFNVTSTLRINTTTNEIFYCTFRTLDPEENHTAELVIPELPLAHPPNER",27.4 fold,137000 MFI
"variant PD-L1 ECD-Fc N45D, F173I, S177C (Fc fusion, not shown: a dimerising Fc or GST) FTVTVPKDLYVVEYGSNMTIECKFPVEKQLDLAALIVYWEMEDKDIIQFVHGEEDLKVQHSSYRQRARLLKDQLSLGNAALQITDVKLQDAGVYRCMISYGGADYKRITVKVNAPYNKINQRILVVDPVTSEHELTCQAEGYPKAEVIWTSSDHQVLSGKTTTTNSKREEKLINVTCTLRINTTTNEIFYCTFRRLDPEENHTAELVIPELPLAHPPNER",0.4 fold,2200 MFI
"variant PD-L1 ECD-Fc M41K, D43G, N45D, R64S, S99G (Fc fusion, not shown: a dimerising Fc or GST) FTVTVPKDLYVVEYGSNMTIECKFPVEKQLDLAALIVYWEKEGKDIIQFVHGEEDLKVQHSSYSQRARLLKDQLSLGNAALQITDVKLQDAGVYRCMIGYGGADYKRITVKVNAPYNKINQRILVVDPVTSEHELTCQAEGYPKAEVIWTSSDHQVLSGKTTTTNSKREEKLFNVTSTLRINTTTNEIFYCTFRRLDPEENHTAELVIPELPLAHPPNER",26.9 fold,135000 MFI
"variant PD-L1 ECD-Fc I98T, F173Y, L196S (Fc fusion, not shown: a dimerising Fc or GST) FTVTVPKDLYVVEYGSNMTIECKFPVEKQLDLAALIVYWEMEDKNIIQFVHGEEDLKVQHSSYRQRARLLKDQLSLGNAALQITDVKLQDAGVYRCMTSYGGADYKRITVKVNAPYNKINQRILVVDPVTSEHELTCQAEGYPKAEVIWTSSDHQVLSGKTTTTNSKREEKLYNVTSTLRINTTTNEIFYCTFRRSDPEENHTAELVIPELPLAHPPNER",0 fold,236 MFI
"variant PD-L1 ECD-Fc K23N, N45D, S75P, N120S (Fc fusion, not shown: a dimerising Fc or GST) FTVTVPKDLYVVEYGSNMTIECNFPVEKQLDLAALIVYWEMEDKDIIQFVHGEEDLKVQHSSYRQRARLLKDQLPLGNAALQITDVKLQDAGVYRCMISYGGADYKRITVKVNAPYNKISQRILVVDPVTSEHELTCQAEGYPKAEVIWTSSDHQVLSGKTTTTNSKREEKLFNVTSTLRINTTTNEIFYCTFRRLDPEENHTAELVIPELPLAHPPNER",26.4 fold,132000 MFI
"variant PD-L1 ECD-Fc N45D, E134G, L213P (Fc fusion, not shown: a dimerising Fc or GST) FTVTVPKDLYVVEYGSNMTIECKFPVEKQLDLAALIVYWEMEDKDIIQFVHGEEDLKVQHSSYRQRARLLKDQLSLGNAALQITDVKLQDAGVYRCMISYGGADYKRITVKVNAPYNKINQRILVVDPVTSEHGLTCQAEGYPKAEVIWTSSDHQVLSGKTTTTNSKREEKLFNVTSTLRINTTTNEIFYCTFRRLDPEENHTAELVIPELPPAHPPNER",0.5 fold,2260 MFI
"variant PD-L1 ECD-Fc K23N, N45D, Q73R, T163I (Fc fusion, not shown: a dimerising Fc or GST) FTVTVPKDLYVVEYGSNMTIECNFPVEKQLDLAALIVYWEMEDKDIIQFVHGEEDLKVQHSSYRQRARLLKDRLSLGNAALQITDVKLQDAGVYRCMISYGGADYKRITVKVNAPYNKINQRILVVDPVTSEHELTCQAEGYPKAEVIWTSSDHQVLSGKTTITNSKREEKLFNVTSTLRINTTTNEIFYCTFRRLDPEENHTAELVIPELPLAHPPNER",27.8 fold,139000 MFI
"variant PD-L1 ECD-Fc K28E, N45D, W149R, S158G, P198T (Fc fusion, not shown: a dimerising Fc or GST) FTVTVPKDLYVVEYGSNMTIECKFPVEEQLDLAALIVYWEMEDKDIIQFVHGEEDLKVQHSSYRQRARLLKDQLSLGNAALQITDVKLQDAGVYRCMISYGGADYKRITVKVNAPYNKINQRILVVDPVTSEHELTCQAEGYPKAEVIRTSSDHQVLGGKTTTTNSKREEKLFNVTSTLRINTTTNEIFYCTFRRLDTEENHTAELVIPELPLAHPPNER",0.1 fold,691 MFI

# Further lines, results first:
Fold Increase over WT PD-L1 ECD-Fc,MFI at 20 nM conc.,Binder
13.1 fold,65700 MFI,"variant PD-L1 ECD-Fc N45D, K111T, R195G (Fc fusion, not shown: a dimerising Fc or GST) FTVTVPKDLYVVEYGSNMTIECKFPVEKQLDLAALIVYWEMEDKDIIQFVHGEEDLKVQHSSYRQRARLLKDQLSLGNAALQITDVKLQDAGVYRCMISYGGADYKRITVTVNAPYNKINQRILVVDPVTSEHELTCQAEGYPKAEVIWTSSDHQVLSGKTTTTNSKREEKLFNVTSTLRINTTTNEIFYCTFRGLDPEENHTAELVIPELPLAHPPNER"
21.7 fold,109000 MFI,"variant PD-L1 ECD-Fc N45D, K111T, T183A, I188V (Fc fusion, not shown: a dimerising Fc or GST) FTVTVPKDLYVVEYGSNMTIECKFPVEKQLDLAALIVYWEMEDKDIIQFVHGEEDLKVQHSSYRQRARLLKDQLSLGNAALQITDVKLQDAGVYRCMISYGGADYKRITVTVNAPYNKINQRILVVDPVTSEHELTCQAEGYPKAEVIWTSSDHQVLSGKTTTTNSKREEKLFNVTSTLRINATTNEVFYCTFRRLDPEENHTAELVIPELPLAHPPNER"
26.1 fold,131000 MFI,"variant PD-L1 ECD-Fc N45D, I148V, R195G, N201D (Fc fusion, not shown: a dimerising Fc or GST) FTVTVPKDLYVVEYGSNMTIECKFPVEKQLDLAALIVYWEMEDKDIIQFVHGEEDLKVQHSSYRQRARLLKDQLSLGNAALQITDVKLQDAGVYRCMISYGGADYKRITVKVNAPYNKINQRILVVDPVTSEHELTCQAEGYPKAEVVWTSSDHQVLSGKTTTTNSKREEKLFNVTSTLRINTTTNEIFYCTFRGLDPEEDHTAELVIPELPLAHPPNER"
22.4 fold,112000 MFI,"variant PD-L1 ECD-Fc N45D, N113Y, R195S (Fc fusion, not shown: a dimerising Fc or GST) FTVTVPKDLYVVEYGSNMTIECKFPVEKQLDLAALIVYWEMEDKDIIQFVHGEEDLKVQHSSYRQRARLLKDQLSLGNAALQITDVKLQDAGVYRCMISYGGADYKRITVKVYAPYNKINQRILVVDPVTSEHELTCQAEGYPKAEVIWTSSDHQVLSGKTTTTNSKREEKLFNVTSTLRINTTTNEIFYCTFRSLDPEENHTAELVIPELPLAHPPNER"
11.8 fold,59300 MFI,"variant PD-L1 ECD-Fc N45D, R68L, F173L, D197G, P198S (Fc fusion, not shown: a dimerising Fc or GST) FTVTVPKDLYVVEYGSNMTIECKFPVEKQLDLAALIVYWEMEDKDIIQFVHGEEDLKVQHSSYRQRALLLKDQLSLGNAALQITDVKLQDAGVYRCMISYGGADYKRITVKVNAPYNKINQRILVVDPVTSEHELTCQAEGYPKAEVIWTSSDHQVLSGKTTTTNSKREEKLLNVTSTLRINTTTNEIFYCTFRRLGSEENHTAELVIPELPLAHPPNER"
0.1 fold,296 MFI,"variant PD-L1 ECD-Fc N45D, G52V, Q121L, P198S (Fc fusion, not shown: a dimerising Fc or GST) FTVTVPKDLYVVEYGSNMTIECKFPVEKQLDLAALIVYWEMEDKDIIQFVHVEEDLKVQHSSYRQRARLLKDQLSLGNAALQITDVKLQDAGVYRCMISYGGADYKRITVKVNAPYNKINLRILVVDPVTSEHELTCQAEGYPKAEVIWTSSDHQVLSGKTTTTNSKREEKLFNVTSTLRINTTTNEIFYCTFRRLDSEENHTAELVIPELPLAHPPNER"
2.7 fold,13400 MFI,"variant PD-L1 ECD-Fc N45D, G102D, R194W, R195G (Fc fusion, not shown: a dimerising Fc or GST) FTVTVPKDLYVVEYGSNMTIECKFPVEKQLDLAALIVYWEMEDKDIIQFVHGEEDLKVQHSSYRQRARLLKDQLSLGNAALQITDVKLQDAGVYRCMISYGDADYKRITVKVNAPYNKINQRILVVDPVTSEHELTCQAEGYPKAEVIWTSSDHQVLSGKTTTTNSKREEKLFNVTSTLRINTTTNEIFYCTFWGLDPEENHTAELVIPELPLAHPPNER"
18.1 fold,90500 MFI,"variant PD-L1 ECD-Fc N45D, Q89R, I98V (Fc fusion, not shown: a dimerising Fc or GST) FTVTVPKDLYVVEYGSNMTIECKFPVEKQLDLAALIVYWEMEDKDIIQFVHGEEDLKVQHSSYRQRARLLKDQLSLGNAALQITDVKLRDAGVYRCMVSYGGADYKRITVKVNAPYNKINQRILVVDPVTSEHELTCQAEGYPKAEVIWTSSDHQVLSGKTTTTNSKREEKLFNVTSTLRINTTTNEIFYCTFRRLDPEENHTAELVIPELPLAHPPNER"
21.8 fold,109000 MFI,"variant PD-L1 ECD-Fc N45D, I148V, R195G (Fc fusion, not shown: a dimerising Fc or GST) FTVTVPKDLYVVEYGSNMTIECKFPVEKQLDLAALIVYWEMEDKDIIQFVHGEEDLKVQHSSYRQRARLLKDQLSLGNAALQITDVKLQDAGVYRCMISYGGADYKRITVKVNAPYNKINQRILVVDPVTSEHELTCQAEGYPKAEVVWTSSDHQVLSGKTTTTNSKREEKLFNVTSTLRINTTTNEIFYCTFRGLDPEENHTAELVIPELPLAHPPNER"
17.8 fold,89000 MFI,"variant PD-L1 ECD-Fc N45D, N165Y, E170G (Fc fusion, not shown: a dimerising Fc or GST) FTVTVPKDLYVVEYGSNMTIECKFPVEKQLDLAALIVYWEMEDKDIIQFVHGEEDLKVQHSSYRQRARLLKDQLSLGNAALQITDVKLQDAGVYRCMISYGGADYKRITVKVNAPYNKINQRILVVDPVTSEHELTCQAEGYPKAEVIWTSSDHQVLSGKTTTTYSKREGKLFNVTSTLRINTTTNEIFYCTFRRLDPEENHTAELVIPELPLAHPPNER"
